In patent US20250085286A1 one finds IC50 data, which are given here for one molecule.

This test addresses HRP-labelled monoclonal antibody targeting PRO-C22. The test is described as follows: competitive ELISA, standard peptide against coated Biotin-… for the HRP-mAb.

Sequence of HRP-labelled monoclonal antibody targeting PRO-C22 (VH, as listed by the source limits assumed, chain 1 of 2): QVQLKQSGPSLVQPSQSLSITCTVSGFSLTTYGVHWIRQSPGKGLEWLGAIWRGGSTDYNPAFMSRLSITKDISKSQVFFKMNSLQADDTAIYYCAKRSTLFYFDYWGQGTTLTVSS
Sequence of HRP-labelled monoclonal antibody targeting PRO-C22 (VL, as listed by the source limits assumed, chain 2 of 2): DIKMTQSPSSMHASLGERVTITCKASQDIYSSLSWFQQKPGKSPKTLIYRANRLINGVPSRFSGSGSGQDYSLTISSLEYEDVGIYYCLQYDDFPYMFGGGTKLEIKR

In turn, GPPGPPGQCDPSQCAYFASLAARPGNVKGP [30 AA standard peptide …] gave an IC50 of 8.15 ng/mL.
